Where a chain is given by its changes, count along the chain named. No end group written: not given here. TAMRA = 5(6)-carboxytetramethylrhodamine
T1: mCh-HsC53 (human, UniProt Q96JB5 1-506)
T1 construct: also called mCherry-tagged human C53; not shown: mCherry, N-terminal, kept
T1 sequence (looked up): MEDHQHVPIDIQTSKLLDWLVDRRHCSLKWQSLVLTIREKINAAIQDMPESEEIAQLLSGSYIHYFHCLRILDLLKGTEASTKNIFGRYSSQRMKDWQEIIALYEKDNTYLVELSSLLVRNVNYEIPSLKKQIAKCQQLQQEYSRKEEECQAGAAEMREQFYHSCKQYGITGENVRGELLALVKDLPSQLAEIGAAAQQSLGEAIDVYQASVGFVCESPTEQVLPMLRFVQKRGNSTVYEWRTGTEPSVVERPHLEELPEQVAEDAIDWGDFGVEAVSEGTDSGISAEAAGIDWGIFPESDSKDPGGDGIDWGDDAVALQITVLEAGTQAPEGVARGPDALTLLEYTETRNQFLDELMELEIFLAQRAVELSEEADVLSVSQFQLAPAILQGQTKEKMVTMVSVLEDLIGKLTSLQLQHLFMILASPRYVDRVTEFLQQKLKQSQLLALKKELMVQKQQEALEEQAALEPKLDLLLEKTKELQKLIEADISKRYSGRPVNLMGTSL

T2: ATG8A (purified) (Arabidopsis thaliana, UniProt Q8LEM4 1-117)
T2 construct: ATG8A, Arabidopsis thaliana; 3C site after the His6 tag; 15N-labelled or unlabelled in NMR; also called HIS6-3C-ATG8A; source: E. coli Rosetta2 (DE3) pLysS, purified (HisTrap, ion exchange, SEC)
T2 sequence (looked up): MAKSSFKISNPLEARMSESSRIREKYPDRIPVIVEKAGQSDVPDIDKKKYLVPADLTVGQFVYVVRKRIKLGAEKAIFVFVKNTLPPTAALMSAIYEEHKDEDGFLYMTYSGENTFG

B1: GST-GABARAP (natural protein, human, UniProt O95166 1-117, looked up)
chain: MKFVYKEEHPFEKRRSEGEKIRKKYPDRVPVIVEKAPKARIGDLDKKKYLVPSDLTVGQFYFLIRKRIHLRAEDALFFFVNNVIPPTSATMGQLYQEHHEEDFFLYIAYSDESVYGL
notes: also called human ATG8 isoform GABARAP; human ATG8; not shown: GST, N-terminal, kept
B2: AtUBA5 LIR peptide (peptide)
peptide: GPLHDDNEWNISVVDD
notes: LIR/UFIM peptide of UBA5; also called AtUBA5 LIR/UFIM peptide; UBA5 LIR/UFIM; source: synthetic peptide (synthetized in house)
B3: GST-ATG8A (natural protein)
chain: T2 sequence (looked up)
notes: also called Arabidopsis ATG8A; not shown: GST, N-terminal, kept
B4: sAIM1,2 peptide (AtC53 IDR-derived peptide that covers both sAIM1 and sAIM2) (peptide)
chain: {TAMRA}-AADSIDWDITVETPEIDWDVSMVEEV
B5: GABARAP (purified) (natural protein, human)
chain: FVYKEEHPFEKRRSEGEKIRKKYPDRVPVIVEKAPKARIGDLDKKKYLVPSDLTVGQFYFLIRKRIHLRAEDALFFFVNNVIPPTSATMGQLYQEHHEEDFFLYIAYSDESVYG
notes: GABARAP, Homo sapiens; 15N-labelled in the NMR titration; also called HIS6-3C-GABARAP; HIS6-GABARAP; source: E. coli Rosetta2 (DE3) pLysS, purified (HisTrap, ion exchange, SEC)
B6: HsC53^cAIM (purified, ITC) (natural protein)
chain: T1 sequence (looked up) with I267W, W269G, G270I, I292W, W294G, G295I, I310W, W312G, G313I
notes: source: E. coli Rosetta2 (DE3) pLysS, purified

Key:
Conditions in all cases: both partners purified
mCh-HsC53 = molecular target: T1, mCh-HsC53; test: microscopy-based on-bead protein-protein interaction assay
HsUFM1 (purified) = molecular target: T3, HsUFM1 (purified) (human, UniProt P61960 1-85); test: native MS; HsUFM1 (5 μM) with peptide (25 μM); ammonium acetate, nanoelectrospray, Synapt G2Si
T3 construct: UFM1, Homo sapiens; 15N-labelled in the NMR titration; also called human UFM1; source: E. coli Rosetta2 (DE3) pLysS, purified (HisTrap, ion exchange, SEC)

cAIM wt peptide = test: microscopy-based on-bead protein-protein interaction assay
AtUFM1 (purified) = molecular target: T4, AtUFM1 (purified) (Arabidopsis thaliana); test: fluorescence polarisation; fluorescence anisotropy; ATG8A or AtUFM1 (250 nM-320 μM) added to 50 nM TAMRA-labeled peptide, 10 min at 4°C
T4 construct: UFM1, Arabidopsis thaliana; 15N-labelled or unlabelled in NMR; also called HIS6-3C-AtUFM1; HIS6-AtUFM1; source: E. coli Rosetta2 (DE3) pLysS, purified (HisTrap, ion exchange, SEC)

ATG8A (purified) = molecular target: T2, ATG8A (purified); test: as above
[1] = molecular target: B6; test: ITC
GABARAP (purified) = molecular target: B5; test: ITC

T3 sequence (P61960 whole entry): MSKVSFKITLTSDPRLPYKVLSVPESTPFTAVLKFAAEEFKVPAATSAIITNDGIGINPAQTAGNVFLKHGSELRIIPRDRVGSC

Binder: B1
- binding result (mCh-HsC53): binds

Binder: B2
- stoichiometry N (HsUFM1 (purified)): 1

Binder: B3
- binding result (cAIM wt peptide): binds

Binder: B4
- Kd (AtUFM1 (purified)): 148 µM
- Kd (ATG8A (purified)): 26.5 µM

Binder: B5
- Kd [1]: 11.2 µM

Binder: B6
- fold increase in affinity against the C53 wild type (GABARAP (purified)): 1.8 fold
